Results as given in US20220074941A1, “HSP90 COMBINATION THERAPY” (Sloan-Kettering Institute for Cancer Research, priority 2011, published 2022).

What was measured:
[1] = system: Hsp90 complexes in K562 cell extract; test: Nano-LC-MS/MS of PU-beads pull-downs; type: binding; details: protein identified in PU-beads pull-down of K562 cell extract, QSTAR-Elite QTof MS
Method in brief: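 Proteins were identified by data-dependent nano LC-MS/MS (QTof, ESI) and Mascot searching (p<0.05), then reported as spectral counts and coverage via Scaffold. Inputs were PU-bead versus control-bead pull-downs from lysate pre-cleared with control beads overnight at 4 °C, eluted by boiling in 2% SDS.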

[2] = system: Hsp90 complexes in Mia-PaCa-2 cell extract; test: Nano-LC-MS/MS of PU-beads pull-downs; type: binding, human; details: protein identified in PU-beads pull-down of Mia-PaCa-2 cell extract; QSTAR-Elite QTof MS
Method in brief: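 They came from PU-bead pull-downs of pre-cleared lysates (control beads, overnight, 4 °C), eluted by boiling in 2% SDS, gel-separated and run by data-dependent nano-ESI QTof MS/MS.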

B1: APRT (protein, UniProt P07741 2-180, looked up)
Adenine …: ADSELQLVEQRIRSFPDFPTPGVVFRDISPVLKDPASFRAAIGLLARHLKATHGGRIDYIAGLDSRGFLFGPSLAQELGLGCVLIRKRGKLPGPTLWASYSLEYGKAELEIQKDALEPGQRVVVVDDLLATGGTMNAACELLGRLQAEVLECVSLVELTSLKGREKLAPVPFFSLLQYE
- Number of Assigned Spectra, K562 Prep 1 [1]: 0
- Number of Assigned Spectra, K562 Prep 2 [1]: 0
- Number of Assigned Spectra, Mia-Paca 2 [2]: 6

B2: FHOD1 (protein, UniProt Q9Y613 2-1164, looked up)
FH1/FH2 domain-containing …: AGGEDRGDGEPVSVVTVRVQYLEDTDPFACANFPEPRRAPTCSLDGALPLGAQIPAVHRLLGAPLKLEDCALQVSPSGYYLDTELSLEEQREMLEGFYEEISKGRKPTLILRTQLSVRVNAILEKLYSSSGPELRRSLFSLKQIFQEDKDLVPEFVHSEGLSCLIRVGAAADHNYQSYILRALGQLMLFVDGMLGVVAHSDTIQWLYTLCASLSRLVVKTALKLLLVFVEYSENNAPLFIRAVNSVASTTGAPPWANLVSILEEKNGADPELLVYTVTLINKTLAALPDQDSFYDVTDALEQQGMEALVQRHLGTAGTDVDLRTQLVLYENALKLEDGDIEEAPGAGGRRERRKPSSEEGKRSRRSLEGGGCPARAPEPGPTGPASPVGPTSSTGPALLTGPASSPVGPPSGLQASVNLFPTISVAPSADTSSERSIYKARFLENVAAAETEKQVALAQGRAETLAGAMPNEAGGHPDARQLWDSPETAPAARTPQSPAPCVLLRAQRSLAPEPKEPLIPASPKAEPIWELPTRAPRLSIGDLDFSDLGEDEDQDMLNVESVEAGKDIPAPSPPLPLLSGVPPPPPLPPPPPIKGPFPPPPPLPLAAPLPHSVPDSSALPTKRKTVKLFWRELKLAGGHGVSASRFGPCATLWASLDPVSVDTARLEHLFESRAKEVLPSKKAGEGRRTMTTVLDPKRSNAINIGLTTLPPVHVIKAALLNFDEFAVSKDGIEKLLTMMPTEEERQKIEEAQLANPDIPLGPAENFLMTLASIGGLAARLQLWAFKLDYDSMEREIAEPLFDLKVGMEQLVQNATFRCILATLLAVGNFLNGSQSSGFELSYLEKVSEVKDTVRRQSLLHHLCSLVLQTRPESSDLYSEIPALTRCAKVDFEQLTENLGQLERRSRAAEESLRSLAKHELAPALRARLTHFLDQCARRVAMLRIVHRRVCNRFHAFLLYLGYTPQAAREVRIMQFCHTLREFALEYRTCRERVLQQQQKQATYRERNKTRGRMITETEKFSGVAGEAPSNPSVPVAVSSGPGRGDADSHASMKSLLTSRPEDTTHNRRSRGMVQSSSPIMPTVGPSTASPEEPPGSSLPSDTSDEIMDLLVQSVTKSSPRALAARERKRSRGNRKSLRRTLKSGLGDDLVQALGLSKGPGLEV
- Number of Assigned Spectra, K562 Prep 1 [1]: 5
- Number of Assigned Spectra, K562 Prep 2 [1]: 2
- Number of Assigned Spectra, Mia-Paca 2 [2]: 0

B3: FIP1L1 (protein, UniProt Q6UN15 1-594, looked up)
Pre-mRNA 3'-end-processing …: MSAGEVERLVSELSGGTGGDEEEEWLYGGPWDVHVHSDLAKDLDENEVERPEEENASANPPSGIEDETAENGVPKPKVTETEDDSDSDSDDDEDDVHVTIGDIKTGAPQYGSYGTAPVNLNIKTGGRVYGTTGTKVKGVDLDAPGSINGVPLLEVDLDSFEDKPWRKPGADLSDYFNYGFNEDTWKAYCEKQKRIRMGLEVIPVTSTTNKITAEDCTMEVTPGAEIQDGRFNLFKVQQGRTGNSEKETALPSTKAEFTSPPSLFKTGLPPSRNSTSSQSQTSTASRKANSSVGKWQDRYGRAESPDLRRLPGAIDVIGQTITISRVEGRRRANENSNIQVLSERSATEVDNNFSKPPPFFPPGAPPTHLPPPPFLPPPPTVSTAPPLIPPPGFPPPPGAPPPSLIPTIESGHSSGYDSRSARAFPYGNVAFPHLPGSAPSWPSLVDTSKQWDYYARREKDRDRERDRDRERDRDRDRERERTRERERERDHSPTPSVFNSDEERYRYREYAERGYERHRASREKEERHRERRHREKEETRHKSSRSNSRRRHESEEGDSHRRHKHKKSKRSKEGKEAGSEPAPEQESTEATPAE
- Number of Assigned Spectra, K562 Prep 1 [1]: 6
- Number of Assigned Spectra, K562 Prep 2 [1]: 3
- Number of Assigned Spectra, Mia-Paca 2 [2]: 0
